Experimental data reported in PMC4621513.

Target: APOBEC3G (A3G) protein, Q9HC16
Assay: AFM topographic imaging (protein volume); A3G mixed 2:1 with hybrid DNA substrate (418 bp duplex with 69 nt ssDNA overhang, deaminase specific or nonspecific) in 50 mM HEPES pH 7.5, 100 mM NaCl, 5 mM MgCl2, 1 mM DTT, 15 min at 37 °C; deposited on APS-mica, imaged in air; protein volume converted to mass; stoichiometry of A3G on the ssDNA
Conditions: remark: other sources report otherwise

B1: APOBEC3G (A3G) protein, Q9HC16 1-384 (enzyme)
chain: MKPHFRNTVERMYRDTFSYNFYNRPILSRRNTVWLCYEVKTKGPSRPPLDAKIFRGQVYSELKYHPEMRFFHWFSKWRKLHRDQEYEVTWYISWSPCTKCTRDMATFLAEDPKVTLTIFVARLYYFWDPDYQEALRSLCQKRDGPRATMKIMNYDEFQHCWSKFVYSQRELFEPWNNLPKYYILLHIMLGEILRHSMDPPTFTFNFNNEPWVRGRHETYLCYEVERMHNDTWVLLNQRRGFLCNQAPHKHGFLEGRHAELCFLDVIPFWKLDLDQDYRVTCFTSWSPCFSCAQEMAKFISKNKHVSLCIFTARIYDDQGRCQEGLRTLAEAGAKISIMTYSEFKHCWDTFVDHQGCPFQPWDGLDEHSQDLSGRLRAILQNQEN
stoichiometry N: 2
